One assay addresses T1, SORT1 (Homo sapiens, UniProt Q99523).
T1 construct: Human SORT1 (78-755)-His (Acrobiosystems); His (C); purchased Acrobiosystems SON-H52H5
T1 sequence (Q99523 78-755): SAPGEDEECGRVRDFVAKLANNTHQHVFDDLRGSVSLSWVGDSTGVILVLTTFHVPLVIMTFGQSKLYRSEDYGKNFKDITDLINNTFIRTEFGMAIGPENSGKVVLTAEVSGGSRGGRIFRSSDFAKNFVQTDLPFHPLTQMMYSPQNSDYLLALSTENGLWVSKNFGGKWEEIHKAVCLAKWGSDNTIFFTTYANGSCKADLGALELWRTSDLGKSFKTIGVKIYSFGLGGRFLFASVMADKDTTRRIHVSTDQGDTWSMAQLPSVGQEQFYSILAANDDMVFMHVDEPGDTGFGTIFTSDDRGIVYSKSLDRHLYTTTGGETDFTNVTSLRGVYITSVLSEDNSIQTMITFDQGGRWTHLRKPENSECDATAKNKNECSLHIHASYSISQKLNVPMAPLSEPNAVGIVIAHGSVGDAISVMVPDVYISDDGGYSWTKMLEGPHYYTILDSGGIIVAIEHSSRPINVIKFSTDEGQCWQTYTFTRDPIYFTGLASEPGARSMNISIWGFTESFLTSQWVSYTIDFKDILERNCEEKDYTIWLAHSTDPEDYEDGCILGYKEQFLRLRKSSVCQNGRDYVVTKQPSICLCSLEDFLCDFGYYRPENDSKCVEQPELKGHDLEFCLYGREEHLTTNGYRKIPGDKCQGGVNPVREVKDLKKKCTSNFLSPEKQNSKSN
The assay is described as follows: FP competition binding assay. As for the experimental part:
Competition binding studies were conducted in a similar manner to the direct binding protocol. Unlabeled peptides were prepared with a 12-point, two-fold dilution series in a V-bottom 96-well plate for a total volume of 25 uL with a starting concentration of 50 μM. A 10× working stock of the FAM labeled peptide was prepared as described for the Direct binding experiment.
A 500 nM working solution (EC80) of target protein was prepared in the FP buffer (1×PBS, pH 7.4, 0.1% Tween-20). An aliquot of 20 μL of the 500 nM working solution was then added to 2.5 μL of the FAM-peptide, after which 2.5 μL of the unlabeled peptide dilution series was added and mixed by pipetting in a V-bottom 96-well plate. […] The 384-well plate was then centrifuged 1 min, 4000 rpm and fluorescence and polarization of dye measured on a Biotek Synergy Neo2 plate reader using the same settings as for the Direct Binding experiment. Data were then fitted to a One site—Fit log IC50 curve in GraphPad to calculate the IC50.
The various conjugates were evaluated in a competitive fluorescence polarization study as described elsewhere herein.

A further assay deals with T2, Human SORT1 (78-755)-His (human, UniProt Q99523 78-755).
T2 construct: range 78-755; Amine-coupled to CM5 chip for SPR; Two suppliers are named (Acrobiosystems, GenScript)
T2 sequence (looked up): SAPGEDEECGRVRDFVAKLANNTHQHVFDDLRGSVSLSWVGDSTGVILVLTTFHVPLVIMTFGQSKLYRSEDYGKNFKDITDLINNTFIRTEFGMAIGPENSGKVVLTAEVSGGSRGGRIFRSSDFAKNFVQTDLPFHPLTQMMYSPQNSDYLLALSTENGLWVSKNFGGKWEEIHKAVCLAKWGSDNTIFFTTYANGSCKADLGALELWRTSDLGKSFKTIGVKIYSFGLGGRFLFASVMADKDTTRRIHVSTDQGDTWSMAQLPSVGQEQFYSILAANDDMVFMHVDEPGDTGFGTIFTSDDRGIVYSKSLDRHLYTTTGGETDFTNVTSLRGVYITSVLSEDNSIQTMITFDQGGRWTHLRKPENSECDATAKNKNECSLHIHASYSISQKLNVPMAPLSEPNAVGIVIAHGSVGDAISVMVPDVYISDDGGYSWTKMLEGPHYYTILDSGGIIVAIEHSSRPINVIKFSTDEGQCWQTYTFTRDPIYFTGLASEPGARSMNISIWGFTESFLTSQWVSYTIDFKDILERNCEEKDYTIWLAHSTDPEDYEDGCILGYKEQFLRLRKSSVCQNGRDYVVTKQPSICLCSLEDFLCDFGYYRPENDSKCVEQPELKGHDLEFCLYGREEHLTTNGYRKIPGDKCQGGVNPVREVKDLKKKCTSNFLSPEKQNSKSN
The assay is described as follows: SPR (Biacore 8K), SORT1 on CM5 chip, siRNA-peptide conjugate as analyte, 1:1 model. The protocol: (§1) SPR analysis was performed on Series S CM5 chips (Cytiva) using a Biacore 8K instrument (Cytiva). Sensorgrams were double-referenced by subtracting the response on both a reference flow cell and a blank sample. Human SORT1 (78-755)-His (Acrobiosystems), human SORT1 (78-755)-His(GenScript), mouse SORT1 (76-753)-His (R&D Systems), rat SORT1 (76-752)-His (GenScript), and cyno SORT1 (76-753)-His (GenScript) were diluted to 20-60 μg/mL in 10 mM sodium acetate pH 4.5 buffer and immobilized onto Series S CM5 chips using amine coupling at a flow rate of 10 μL/min for 45-100 s.
(§2) Ten start-up cycles and a blank cycle preceded each analysis run. The runs were performed by sequential injections of analyte (0-20 nM, 3-fold serial dilutions) with a 90 s association and 900 s dissociation at a flow rate of 30 μL/min, followed by two regeneration cycles with 2 M MgCl2 for 90 s at a flow rate of 10 μL/min. […] Five start-up cycles and a blank cycle preceded each analysis run. The runs were performed by sequential injections of analyte (0-25 nM) with a 150 seconds (s) association and 300 s dissociation at a flow rate of 30 μL/min, followed by a regeneration with 2 M MgCl₂ for 200 s at a flow rate of 10 μL/min. The kinetic rate constants (kₐ and kd) and the equilibrium binding constant (Kd) were calculated using a 1:1 kinetic binding model on the Biacore Insight Evaluation Software (Cytiva).
(§3) SPR analysis was performed on Series S CM5 chips (Cytiva) using a Biacore 8K instrument (Cytiva). Sensorgrams were double-referenced by subtracting the response on both a reference flow cell and a blank sample. The SPR analysis was conducted using four different SORT1 species: Human SORT1, Mouse SORT1, Rat SORT1, and Cyno SORT1. The samples were prepared according to the general procedure described above herein. The kinetic rate constants (ka and […]) and the equilibrium binding constant (Kd) were calculated using a 1:1 kinetic binding model on the Biacore Insight Evaluation Software (Cytiva).

For another assay, the target named is T3, rat SORT1 (76-752)-His (rat, UniProt O54861 76-752).
T3 construct: range 76-752; Amine-coupled to CM5 chip for SPR
T3 sequence (looked up): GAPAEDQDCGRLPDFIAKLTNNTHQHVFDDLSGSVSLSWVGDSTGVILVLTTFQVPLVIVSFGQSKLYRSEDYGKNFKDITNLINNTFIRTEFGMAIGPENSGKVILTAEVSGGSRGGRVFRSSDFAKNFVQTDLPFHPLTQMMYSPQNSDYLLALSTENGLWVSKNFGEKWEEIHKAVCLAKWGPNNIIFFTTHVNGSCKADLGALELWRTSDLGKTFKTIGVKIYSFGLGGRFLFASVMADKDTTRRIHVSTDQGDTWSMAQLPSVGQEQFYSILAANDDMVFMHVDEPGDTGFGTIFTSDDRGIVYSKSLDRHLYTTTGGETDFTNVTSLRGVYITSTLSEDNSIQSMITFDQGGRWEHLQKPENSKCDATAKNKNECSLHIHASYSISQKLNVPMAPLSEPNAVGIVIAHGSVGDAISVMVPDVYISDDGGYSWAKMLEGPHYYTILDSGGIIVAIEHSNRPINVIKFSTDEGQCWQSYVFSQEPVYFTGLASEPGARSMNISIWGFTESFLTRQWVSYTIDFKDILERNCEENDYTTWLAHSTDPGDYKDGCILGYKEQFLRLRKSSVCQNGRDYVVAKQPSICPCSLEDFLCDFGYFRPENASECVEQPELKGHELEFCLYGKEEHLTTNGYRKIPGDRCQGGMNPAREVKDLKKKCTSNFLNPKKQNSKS
Described as above. The protocol:
as §1, §2, §3

Bridges are numbered along the chain shown (N, C = ends). Where no end group is shown, it is not given here. Side-chain parts run from the residue outwards. [ ]: non-standard residue; d: D form. tBuAla = CC(C)(C)C[C@H](N)C(=O)O; Tle = CC(C)(C)[C@H](N)C(=O)O; linker = not defined here; Nle = CCCC[C@H](N)C(=O)O; siRNA = not defined here

From patent US20260183411A1, “TARGETING SORTILIN” (priority 2024, published 2026) come the findings set out here.

In the case of `CC[C@H](C)[C@@H]([C@@H](CC(=O)N1CCC[C@H]1[C@H](OC)[C@@H](C)C(=O)N[C@H](C)[C@@H](O)c1ccccc1)OC)N(C)C(=O)[C@@H](NC(=O)[C@H](C(C)C)N(C)C(=O)OCc1ccc(NC(=O)[C@H](CCCNC(N)=O)NC(=O)[C@@H](NC(=O)CCCC(=O)NCCC(=O)N(C)CC(=O)N(C)CC(=O)N(C)CC(=O)N(C)CC(=O)N[C@@H](C)C(=O)N2CCC[C@H]2C(=O)N[C@@H](CCCNC(=N)N)C(=O)N[C@@H](Cc2c[nH]c3ccccc23)C(=O)N[C@@H](CC(=O)O)C(=O)N[C@@H](C)C(=O)N2CCC[C@H]2C(=O)N[C@@H](CC(C)C)C(=O)N[C@@H](CCCNC(=N)N)C(=O)N[C@@H](CC(=O)O)C(=O)N2CCC[C@H]2C(=O)N[C@@H](C)C(=O)N[C@@H](CC(C)C)C(=O)N[C@@H](CCCNC(=N)N)C(=O)N[C@@H](CCC(N)=O)C(=O)N[C@@H](CC(C)C)C(=O)N[C@@H](CC(C)C)C(=O)O)C(C)C)cc1)C(C)C` [PRGN_WT_PDC], on SORT1, the “increase in affinity relative to parent homing peptide” value is on record as about 2.5 ×.

B1: SORT1 peptide 3 conjugate (peptide)
peptide: RWCENK([linker-siRNA])R[Nle]FTCRQ[Tle][tBuAla]
modifications: disulfide 3-11 (inferred); not fully specified; printed as RWCENKR(Nle)FTCRQ(B13)(F02); reading uncertain
notes: also called SORT1 peptide 3 siRNA conjugate
As for B1, the Kd was determined as 108 nM in the assay with Human SORT1 (78-755)-His and 253 nM with rat SORT1 (76-752)-His.
